B1: unnamed (protein)
chain 1: QVQLVQSGAEVKKPGSSVKVSCKASGYAFSYSWINWVRQAPGQGLEWMGRIFPGDGDTDYNGKFKGRVTITADKSTSTAYMELSSLRSEDTAVYYCARNVFDGYWLVYWGQGTLVTVSS
chain 2: DIVMTQTPLSLPVTPGEPASISCRSSKSLLHSNGITYLYWYLQKPGQSPQLLIYQMSNLVSGVPDRFSGSGSGTDFTLKISRVEAEDVGVYYCAQNLELPYTFGGGTKVEIK
B2: unnamed (protein)
chain 1: EVQLVESGGGLVQPGGSLRLSCAASGYTFTSYNMHWVRQAPGKGLEWVGAIYPGNGDTSYNQKFKGRFTISVDKSKNTLYLQMNSLRAEDTAVYYCARVVYYSNSYWYFDVWGQGTLVTVSS
chain 2: DIQMTQSPSSLSASVGDRVTITCRASSSVSYMHWYQQKPGKAPKPLIYAPSNLASGVPSRFSGSGSGTDFTLTISSLQPEDFATYYCQQWSFNPPTFGQGTKVEIK
B3: unnamed (protein)
chain 1: EVQLVESGGGLVQPGRSLRLSCAASGFTFNDYAMHWVRQAPGKGLEWVSTISWNSGSIGYADSVKGRFTISRDNAKKSLYLQMNSLRAEDTALYYCAKDIQYGNYYYGMDVWGQGTTVTVSS
chain 2: EIVLTQSPATLSLSPGERATLSCRASQSVSSYLAWYQQKPGQAPRLLIYDASNRATGIPARFSGSGSGTDFTLTISSLEPEDFAVYYCQQRSNWPITFGQGTRLEIK
B4: unnamed (protein)
chain 1: QLQLQESGPGLVKPSETLSLTCTVSGGSINSSSYYWGWLRQSPGKGLEWIGSFFYTGSTYYNPSLRSRLTISVDTSKNQFSLMLSSVTAADTAVYYCARQSTYYYGSGNYYGWFDRWDQGTLVTVSS
chain 2: EIVLTQSPATLSLSPGERATLSCRASQSVSSYLAWYQQKPGQAPRLLIYDASNRATGIPARFSGSGSGTDFTLTISSLEPEDFAVYYCQQRSNWPPAFGQGTKVEIK
B5: unnamed (protein)
chain 1: EVQLVQSGAEVKKPGESLKISCKGSGRTFTSYNMHWVRQMPGKGLEWMGAIYPLTGDTSYNQKSKLQVTISADKSISTAYLQWSSLKASDTAMYYCARSTYVGGDWQFDVWGKGTTVTVSS
chain 2: EIVLTQSPGTLSLSPGERATLSCRASSSVPYIHWYQQKPGQAPRLLIYATSALASGIPDRFSGSGSGTDFTLTISRLEPEDFAVYYCQQWLSNPPTFGQGTKLEIK
B6: unnamed (protein)
chain 1: EVKLVESGGGLVQPGGSLRLSCATSGFTFTDYYMNWVRQPPGKALEWLGFIGNKANGYTTEYSASVKGRFTISRDKSQSILYLQMNTLRAEDSATYYCTRDRGLRFYFDYWGQGTTLTVSS
chain 2: QTVLSQSPAILSASPGEKVTMTCRASSSVTYIHWYQQKPGSSPKSWIYATSNLASGVPARFSGSGSGTSYSLTISRVEAEDAATYYCQHWSSKPPTFGGGTKLEIK
B7: unnamed (protein)
chain 1: QVQLQESGPGLVRPSQTLSLTCTASGYTFTDYVIHWVKQPPGRGLEWIGYINPYDDDTTYNQKFKGRVTMLVDTSSNTAYLRLSSVTAEDTAVYYCARRGNSYDGYFDYSMDYWGSGTPVTVSS
chain 2: DIQMTQSPSSLSASVGDRVTITCRASQNVGTAVAWLQQTPGKAPKLLIYSASNRYTGVPSRFSGSGSGTDYTFTISSLQPEDIATYYCQQYTNYPMYTFGQGTKVQIK
B8: unnamed (protein)
chain 1: EVQLVQSGPGLVQPGGSVRISCAASGYTFTNYGMNWVKQAPGKGLEWMGWINTYTGESTYADSFKGRFTFSLDTSASAAYLQINSLRAEDTAVYYCARFAIKGDYWGQGTLLTVSS
chain 2: DIQMTQSPSSLSASVGDRVTITCRSTKSLLHSNGITYLYWYQQKPGKAPKLLIYQMSNLASGVPSRFSSSGSGTDFTLTISSLQPEDFATYYCAQNLEIPRTFGQGTKVELK
B9: unnamed (protein)
chain 1: EVQLVESGGGLVQPGGSLRLSCAASGYTFTSYWLHWVRQAPGKGLEWVGMIDPSNSDTRFNPNFKDRFTISADTSKNTAYLQMNSLRAEDTAVYYCATYRSYVTPLDYWGQGTLVTVSS
chain 2: DIQMTQSPSSLSASVGDRVTITCKSSQSLLYTSSQKNYLAWYQQKPGKAPKLLIYWASTRESGVPSRFSGSGSGTDFTLTISSLQPEDFATYYCQQYYAYPWTFGQGTKVEIK
B10: unnamed (protein)
chain 1: EVQLVESGGGLVQPGGSLRLSCAASGFNFNDYFMNWVRQAPGKGLEWVAQMRNKNYQYGTYYAESLEGRFTISRDDSKNSLYLQMNSLKTEDTAVYYCARESYYGFTSYWGQGTLVTVSS
chain 2: DIQMTQSPSSLSASVGDRVTITCQASQDIGISLSWYQQKPGKAPKLLIYNANNLADGVPSRFSGSGSGTDFTLTISSLQPEDFATYYCLQHNSAPYTFGQGTKLEIK

Where “and” joins values, the source holds several entries; their conditions need not be identical. Identical values can stand only once.

The series can be described thus: patients with anti-drug antibodies; higher = more immunogenic.
Turning to B1, the “patients with anti-drug antibodies” value was 6% and 6.6%.
With B2, the “patients with anti-drug antibodies” value was 1%.
In the case of B3, the “patients with anti-drug antibodies” value stood at 0%.
Then B4, with 3.5%; and B5, with 1%; and B6, with 0.5%.
Next, B7: 4.5%.
Then B8, with 40%; and B9, with 11.9%; and B10, with 9.8%.

For the origin of these results see the FLAb antibody collection.
